One data set relates to phycobilisomes. Put plainly: Stabilization of phycobilisomes, room temperature fluorescent spectroscopy (666 nm). The data set is classed as biochemical, Porphridium Cruentum. The method, then: Methods: Native phycobilisomes were isolated from Porphridium Cruentum, purified by Martek Biosciences and received in stabilizing buffer (0.75 M PBS, pH ˜7). Peptergents (ac-A6D and ac-A6K—NH2) were used as supplied (CPC Scientific) without further purification. Briefly, phycobilisomes (1 ng/mL) were mixed with peptergent-0.75M PBS solutions (0, 1, 2, 4 and 8 critical aggregation concentrations (CAC)). Phycobilisome-peptide solutions were dialyzed (3400 MWCO) against PBS solutions of various molarity (0.6-0.01M) for 18 h, in the dark. Room temperature fluorescent spectroscopy of these solutions was conducted using an excitation wavelength of 540 nm and emitted fluorescence (550-700 nm) were collected. UV-Vis spectra were obtained to confirm solution concentrations for all acquired fluorescent data.

Data set [1] can be described thus: Critical aggregation concentration (CAC) of surfactants, dynamic light scattering. It is filed as physicochemical. The method, then: In a further embodiment, the surfactant peptide is added to the mammalian membrane protein at a concentration that is based on the CAC of the surfactant peptide. The CAC of surfactants can be determined experimentally using known dynamic light scattering methods. A minimal amount of sample can be used in this method. Each CAC determination takes a few hours, therefore it is possible to determine the CAC for a large number of peptide detergents in a few weeks. It is known that the lower the CAC, the more hydrophobic the detergents and the stronger the aggregation in water. The CAC for several peptide surfactants in water is shown below in Table 1.
Similar to common surfactants, these peptide surfactants have defined critical aggregation concentrations (CACs) in the sub-millimolar to millimolar range, depending on the hydrophobicity of the tails and the ionic concentration. For example, in water, A6D has a CAC of ≈1.6 mM, and A6K has a CAC of 1.5 mM; however, in phosphate-based saline (PBS) (10 mM sodium phosphate/150 mM NaCl, pH 7.4), A6D has a CAC of 0.25 mM and A6K has a CAC of ≈0.23 mM. This difference is due the charge screening effect in accordance with the Derjaguin-Landau-Verwey-Overbeck (DVLO) theory, which postulates that a critical coagulation concentration of counterions is required to allow assembly and that this concentration will be inversely proportional to the valence of the counterion raised to the sixth power (28). The peptide surfactant supramolecular structure is similar to that of phospholipids; namely, the formation of a polar interface sequesters the hydrophobic tails from water.

Data set [2] deals with T1, GPCR bovine rhodopsin (Bos taurus, UniProt P02699).
T1 construct: Bovine retinae rod outer segment membranes were prepared (40, 41) and urea-stripped (42); tissue J. A. Lawson (Lincoln, Nebr.); host or cells: bovine retinae, rod outer segments
T1 sequence (P02699 whole entry): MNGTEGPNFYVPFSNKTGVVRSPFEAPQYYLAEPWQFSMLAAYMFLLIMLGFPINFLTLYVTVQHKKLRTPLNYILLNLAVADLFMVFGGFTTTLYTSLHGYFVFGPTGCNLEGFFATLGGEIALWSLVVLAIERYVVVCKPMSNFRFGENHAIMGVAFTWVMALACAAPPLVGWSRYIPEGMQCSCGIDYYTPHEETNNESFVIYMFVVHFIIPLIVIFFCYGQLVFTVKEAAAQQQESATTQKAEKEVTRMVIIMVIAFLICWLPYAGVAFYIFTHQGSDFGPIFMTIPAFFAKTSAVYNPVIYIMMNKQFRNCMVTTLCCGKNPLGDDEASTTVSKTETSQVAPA
Put plainly: Thermal stability of rhodopsin in peptide solution in the presence of surfactant (decay of A500). The data set is classed as biochemical. The method, then:
Solubilization of Rhodopsin in Different Surfactants. Bovine retinae rod outer segment membranes were prepared (40, 41) and urea-stripped (42). Samples of the membranes containing 1.4 nmol of rhodopsin were solubilized in 0.5 ml of PBS containing 0.5 mM phenylmethylsulfonyl fluoride with 1% DM or 2% (/vol) OG. The suspensions were centrifuged (100,000×g for 15 min), and the supernatants were kept in the dark at 4° C.
Thermal Stability Study of Rhodopsin in Peptide Solution in the Presence of the Surfactant. Rhodopsin solubilized (32-34) in PBS containing 2% (vol/vol) OG was added to the same volume of PBS containing 0, […], 5.0, or 7.5 mM A6D, 1.8% PEG, or 5.4 mM RAD8. In another experiment, rhodopsin solubilized in PBS containing 1% (19.8 mM) DM was added to the same volume of PBS containing 5.0 mM A6D or 0, 5.0, or 19.8 mM DM. A decrease in A500 was recorded every 5 min up to 110 min at 40° C. for the samples containing OG and at 40-55° C. for those containing DM (FIGS. 2 and 3). UV-visible absorption spectroscopy was performed with a Lambda 6 spectrophotometer (Perkin-Elmer, Wellesley, Mass.) equipped with a temperature regulated cuvette holder with a slit width of 2 nm, 480 nm/min scan speed, and a response time of 1 second. The A500 remaining at different time points was expressed as the percentage of absorbance present at the start of the experiment. The half-life of rhodopsin in each solution was calculated by using a single exponential curve fit. The plot obtained from the percentage of absorbance at different time points was fitted to a single exponential curve with two parameters (Eq. 1).
The plot obtained from the A500 values at different time points was directly fitted to a single exponential curve with three parameters (Eq. 2) when the plot from the percentage of absorbance could not be fitted to Eq. 1.
The half-life (t1/2) was calculated using Eq. 3.

Data set [3] has as its target T2, delipidated bovine rhodopsin (Bos taurus, UniProt P02699).
T2 construct: Bovine retinae rod outer segment membranes were prepared (40, 41) and urea-stripped (42); tissue J. A. Lawson (Lincoln, Nebr.); host or cells: bovine retinae, rod outer segments
Put plainly: Thermal stability of delipidated rhodopsin in the absence of phospholipids (decay of A500). It is filed as biochemical. The conditions noted are these: delipidated rhodopsin, 40° C. The method, then:
Removal of Phospholipids from Rhodopsin. Samples of the membranes containing 4.7 nmol of rhodopsin were solubilized in 1,000 ul of PBS containing 2% (vol/vol) OG. The suspension was mixed with 250 ul (settled beads, concentration of 50%) of rhodopsin-1D4 Sepharose and rotated for 3 h. The 1D4 Sepharose beads were then packed into a minicolumn (7-mm inner diameter) and washed with PBS containing 1% OG by using 500 bed volumes (total of 62.5 ml). The rhodopsin was then eluted with 1.5 ml of PBS containing 1% OG and the C-terminal nanopeptide.
Thermal Stability Study of Rhodopsin in Peptide Solution in the Absence of Phospholipids. The delipidated rhodopsin solution was added to the same volume of 1% OG in PBS containing 0, 3.75, or 7.5 mM A6D, or 1.8% PEG (FIG. 4B). In another experiment, the delipidated rhodopsin solutions were poured into tubes. Each tube was covered with 10 kDa of cutoff membrane and dialyzed against 4.5 ml of PBS or PBS containing 1.25 mM A6D or 1% OG (FIG. 4C). For all samples, a decrease in A500 was recorded every 5 min, up to 120 min at 40° C.

Data set [4] addresses T1, GPCR bovine rhodopsin. Put plainly: Thermal stability of rhodopsin in peptide solution in the absence of OG (decay of A500). As to conditions: rhodopsin/lipid/A6D complex without OG, 2.5 mM A6D, 40° C., 50° C., and 55° C. The data set is classed as biochemical. The method, then:
Thermal Stability of Rhodopsin in Peptide Solution in the Absence of OG. Rhodopsin solubilized in PBS containing 2% (vol/vol) OG was added to the same volume of PBS containing 2.5 mM A6D. […] Then, 0.5 ml of the mixture was poured into the tube. The tube was covered with 10 kDa of cutoff membrane and dialyzed against 4.5 ml of PBS containing 1.25 mM A6D for 40 h in the dark at 4° C. A resultant sample decrease in A500 was recorded every 5 min for 120 min at 40° C. A decrease in A500 of the predialysis mixture containing 1% OG and 1.25 mM A6D was also monitored as a control (FIG. 4A).

Data set [5] concerns the target T1, GPCR bovine rhodopsin. Put plainly: Thermal stability of rhodopsin in peptide solution in the presence of surfactant (decay of A500). It is filed as biochemical. The conditions noted are these: control solution (1.25 mM A6D/1% OG), 50° C.

The text below walks through data of patent publication US20090069547A1, “STABILIZATION OF MAMMALIAN MEMBRANE PROTEINS BY SHORT SURFACTANT PEPTIDES” (Massachusetts Institute of Technology, priority 2007, published 2009).

T2 sequence (P02699 whole entry): as above

In the case of AAAAAAD [A6D], in the data set with phycobilisomes (666 nm, versus stabilized control), the “Concentration normalized signal strength” value is reported as “very similar to the stabilized control”. For the same substance, the “666 nm fluorescence intensity” value in the data set on phycobilisomes (phycobilisomes after buffer change to 0.4M PBS, excitation 540 nm, room temperature) is given as 1.3 ×10^5 cps. In addition, the CAC is 0.25 mM in data set [1] (in phosphate-based saline (PBS) (10 mM sodium phosphate/150 mM NaCl, pH 7.4)) and roughly 1.6 mM in data set [1] (in water). Moreover, the “fold increase in stability compared with the stability in OG alone” value was found to be 2.5 fold with GPCR bovine rhodopsin [2] (2.5 mM A6D/1% OG, rhodopsin/phospholipids, 40° C.); 2.8 fold in data set [3] (1.87 mM A6D in OG); 4.7 fold in data set [3] (3.75 mM A6D in OG). In the data set with GPCR bovine rhodopsin [2] (3.75 mM A6D/1% OG, rhodopsin/lipid, 40° C.), the “fold increase in stability of rhodopsin” value is reported as roughly 4 fold. Further, the Half-life of rhodopsin was 101 min and ≈ 101 min in the data set with GPCR bovine rhodopsin [2] (rhodopsin/lipid, 1.25 mM A6D/1% OG, 40° C.); 277 min and ≈ 277 min with GPCR bovine rhodopsin [2] (rhodopsin/lipid, 3.75 mM A6D/1% OG, 40° C.); 173 min and ≈ 173 min with GPCR bovine rhodopsin [2] (rhodopsin/phospholipids, 2.5 mM A6D/1% OG, 40° C.); 122 min and ≈ 122 min in data set [3] (1.25 mM A6D alone, no OG, no phospholipids); 76 min and ≈ 76 min in data set [3] (1.87 mM A6D/1% OG); 128 min and ≈ 128 min in data set [3] (3.75 mM A6D/1% OG). Also, in the data set with GPCR bovine rhodopsin [5], the Half-life of rhodopsin is recorded as less than 5 min. Also, the “Thermal stability of rhodopsin” value in the data set with GPCR bovine rhodopsin [2] (rhodopsin/phospholipids/DM (9.8 mM) plus 2.5 mM A6D, 50° C.) was “extremely stable with little decay”; in the data set with GPCR bovine rhodopsin [4] it was “very stable at all tested temperatures with little denaturation”. Moreover, the “fold increase in stability” value in data set [3] (A6D alone vs absence of both phospholipids and OG) amounted to 2.6 fold.
